According to patent US5908827, “Protein from urine named component B” (Applied Research Systems ARS Holding N.V., dated 1999):

Molecular target: TGF-alpha receptor obtained from A 431 cell membranes (Homo sapiens (Human), UniProt P00533)
Assay: displacement of I^125-TGF-alpha from its receptor on A 431 cell membranes (radioligand competition)

Ki: 0.077 nM
B1: Component B (other)
chain: LKCYTCKEPMTSASCRTITRCKPEDTACMTTLVTVEAEYPFNQSPVVTRSCSSSCVATDPDSIGAAHLIFCCFRDLCNSEL
modifications: SO4 group bound to Tyr (39); five disulfide bridges (urinary material)
